This is an account of results in patent US10429300B2, “Surface plasmon resonance approach to monitor protein-ligand interactions” (The Johns Hopkins University, priority 2015, dated 2019).

For one test, the system named is rNav1.2a. The test can be described thus: Two-electrode voltage-clamp, rNav1.2a expressed in Xenopus oocytes. Format: cell-based, rat. Conditions: 100 nM toxin. An excerpt:
The DNA sequence of rat (r)Nav1.2a (provided by A. Goldin, University of California, Irvine, Irvine, Calif.), rKv2.1 (provided by K. J. Swartz, National Institutes of Health), and the rNav1.2a/Kv2.1 VSD II or IV chimera was confirmed by automated DNA sequencing, and cRNA was synthesized using T7 polymerase (mMessage mMachine™ kit; Life Technologies) after linearizing the DNA with appropriate restriction enzymes. Channels were expressed in Xenopus oocytes (obtained from Xenopus 1) and studied after a 1-d incubation after cRNA injection (incubated at 17° C. in 96 mM NaCl, 2 mM KCl, 5 mM HEPES, 1 mM MgCl2, 1.8 mM CaCl2, and 50 μg/ml gentamycin, pH 7.6 with NaOH) using two-electrode voltage-clamp recording techniques (OC-725C; Warner Instruments) with a 150-μl recording chamber. Data were filtered at 4 kHz and digitized at 20 kHz using pClamp™ 10 software (Molecular Devices). Microelectrode resistances were 0.5-1.5 MΩ when filled with 3 M KCl. For Kv chimera channel experiments, the external recording solution contained (mM): 50 KCl, 50 NaCl, 5 HEPES, 1 MgCl2, and 0.3 CaCl2, pH 7.6 with NaOH. For rNav1.2a experiments, the external recording solution contained (mM): 100 NaCl, 5 HEPES, 1 MgCl2, and 1.8 CaCl2, pH 7.6 with NaOH. All experiments were performed at ˜22° C. Leak and background conductances, identified by blocking the channel with agitoxin-2 (provided by K. J. Swartz), have been subtracted for all of the Kv channel currents shown. […] Voltage-activation relationships were obtained by measuring tail currents for Kv channels or steady-state currents and calculating conductance for Nav channels, and a single Boltzmann function was fitted to the data according to I/Imax=[1c+cexp(−zF(Vc−cV1/2)/RT)]^−1, where I/Imax is the normalized tail-current amplitude, z is the equivalent charge, V1/2 is the half-activation voltage, F is Faraday's constant, R is the gas constant, and T is temperature in kelvin. For all channels, voltage-activation relationships were recorded in the absence and presence of toxin. The ratio of currents (I/I0) recorded in the presence (I) and absence (I0) of toxin was calculated for voltages typically ranging from −140 to 10 cmV, depending on the construct. […] The apparent equilibrium dissociation constant (apparent KD) for Kv channels was calculated according to KD=((1/(1c−cFu^1/4))c−c1)[toxin], assuming four independent toxin-binding sites per channel. Results are given as mean±SEM unless noted otherwise. Offline data analysis was performed using Clampfit 10™ (Molecular Devices), Origin 8.0™ (OriginLab), and Excel™ (Microsoft). All chemicals were obtained from Sigma-Aldrich.
Representative sodium currents were elicited by a 50-ms depolarization to a suitable membrane voltage (−20 to −15 mV) before (black) and after toxin addition (green) from a holding voltage of −90 mV. […] For each toxin, K^+ currents were elicited by a 300-ms depolarization to 0 mV from a holding voltage of −90 mV (tail voltage was −60 mV). […] For each toxin, K^+ currents (top) were elicited by a 300-ms depolarization near the foot of the voltage-activation curve (bottom) from a holding voltage of −90 mV.
On the technique in general: Two-electrode voltage clamp is typically applied to oocytes expressing channels or transporters.

In test [1] the target is rNav1.2a/Kv2.1 VSD IV paddle chimera. The settings on record: WT chimera; read-out: apparent KD, WT chimera (previously shown); cited from earlier work.
Sequence of rNav1.2a/Kv2.1 VSD IV paddle chimera (P04775 1605-1636 limits assumed, stated change not applied): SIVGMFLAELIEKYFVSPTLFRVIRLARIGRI
Test [2] concerns the target rNav1.2a/Kv2.1 VSD IV chimera R1629A. The settings on record: R1629A substitution; read-out: apparent KD; cited from earlier work.
Test [3] concerns the target rNav1.2a/Kv2.1 VSD IV chimera L1630A. The settings on record: L1630A substitution; read-out: apparent KD; cited from earlier work.

Sequence of rNav1.2a/Kv2.1 VSD IV chimera L1630A (P04775 1605-1636 L1630A limits assumed): as the sequence (P04775 1605-1636 limits assumed, stated change not applied) above, with L26A counted along it
Sequence of rNav1.2a/Kv2.1 VSD IV chimera R1629A (P04775 1605-1636 R1629A limits assumed): as the sequence (P04775 1605-1636 limits assumed, stated change not applied) above, with R25A counted along it

B1: AaHII: Nav channel-selective α-scorpion toxin from Androctonus australis hector; model toxin (protein)
chain: VKDGYIVDDVNCTYFCGRNAYCNEECTKLKGESGYCQWASPYGNACYCYKLPDHVRTKGPGRCH
Turning to B1, in the test with rNav1.2a (50-ms test pulse), the “effect on rNav1.2a fast inactivation” value is given as “inhibits rNav1.2a fast inactivation”. The “fast inactivation time constant (τ) after toxin application” value in the test with rNav1.2a (single-exponential fit of current decay, n=3, mean±SEM) is 4.9±0.1. Also, the Kd in test [1] is 1900 nM; in test [2], 235 ± 24 nM; in test [3], 205 ± 23 nM.
